Test results published in patent US20250051474A1, “ANTI-CD97 ANTIBODIES AND ANTIBODY-DRUG CONJUGATES” (New York University, priority 2023, published 2025).
“Also recorded” adds a separate entry of the source.

Tests used:
[1] = molecular target: T1, CD97 (ADGRE5) isoform 1 ectodomain, purified and biotinylated (human, UniProt P48960 21-552, limits assumed, biotinylated in vitro using the BirA enzyme); test: bead-based binding assay: biotinylated CD97 isoform 1 on streptavidin beads, Fab titrated, flow cytometry MFI, 1:1 fit; EXPERIMENT 2
T1 construct: the whole entry for isoform 1 is named here; also called CD97 isoform 1; Biotinylated CD97 isoform 1
T1 sequence: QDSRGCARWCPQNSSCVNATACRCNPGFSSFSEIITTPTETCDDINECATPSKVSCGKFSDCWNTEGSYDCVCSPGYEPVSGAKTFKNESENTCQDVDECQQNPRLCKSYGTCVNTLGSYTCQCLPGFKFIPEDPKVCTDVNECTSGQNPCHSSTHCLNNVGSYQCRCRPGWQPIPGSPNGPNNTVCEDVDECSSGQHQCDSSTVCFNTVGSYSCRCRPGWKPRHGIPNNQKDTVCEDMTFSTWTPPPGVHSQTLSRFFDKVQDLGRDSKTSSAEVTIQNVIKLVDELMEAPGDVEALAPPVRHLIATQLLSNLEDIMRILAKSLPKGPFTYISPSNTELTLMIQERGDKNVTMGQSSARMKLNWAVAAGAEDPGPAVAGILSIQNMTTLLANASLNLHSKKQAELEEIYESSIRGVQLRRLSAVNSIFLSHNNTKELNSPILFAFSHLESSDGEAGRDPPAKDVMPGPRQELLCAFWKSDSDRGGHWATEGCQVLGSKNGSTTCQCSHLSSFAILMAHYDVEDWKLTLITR

[2] = molecular target: T1, CD97 (ADGRE5) isoform 1 ectodomain, …; test: bead-based binding assay: biotinylated CD97 isoform 1 on streptavidin beads, Fab titrated, flow cytometry MFI, 1:1 fit; EXPERIMENT 1
[3] = system: AML cells; test: Cell viability assay (PrestoBlue), cell killing specificity; type: cell-based, human; details: cells with different CD97 levels
Procedure: (§1) For the cell viability assay, the cells were mixed with ADC (20,000 cells/well), and incubated at 37° C. with 5% CO2 for 3 days. After incubation, cell viability was assessed by PrestoBlue assay (Thermo Fisher), following the manufacturer's protocol. The fluorescence was measured using a FlexStation 3 multi-mode microplate reader (Molecular Devices). Dose-response curves and respective ECso were generated using Prism software (GraphPad). For the cell-killing assay, a 96-well plate was coated with 0.1% poly-D-lysine. The cells were mixed with a diluted Incucyte® Annexin V Green Dye (Sartorius) and ADC (13,500 cells/well), and incubated in an Incucyte live-cell analysis system (Sartorius) at 37° C. with 5% CO2 for 4 days. The percentage of dead cells was analyzed using Incucyte Software (Sartorious).

[4] = system: OCI-AML3 cells; test: Cell viability assay (PrestoBlue) of ADC; type: cell-based, human; details: 3 days incubation
Procedure: as §1

[5] = system: human peripheral blood mononuclear cells (PBMCs); test: Cell-killing assay (Annexin V staining, Incucyte); type: cell-based; details: 4 days incubation
Procedure: as §1

[6] = system: OCI-AML3 cells; test: Cell-killing assay (Annexin V staining, Incucyte); type: cell-based, human
Procedure: as §1

[7] = molecular target: T1, CD97 (ADGRE5) isoform 1 ectodomain, …; test: bead-based binding assay: biotinylated CD97 isoform 1 on streptavidin beads, Fab titrated, flow cytometry MFI; EXPERIMENT 1 and EXPERIMENT 2
[8] = molecular target: T1, CD97 (ADGRE5) isoform 1 ectodomain, …; test: bead-based binding titration (biotinylated antigen on streptavidin beads, flow cytometry), 1:1 fit
[9] = molecular target: T2, EMR2 (EGF-like module-containing mucin-like hormone receptor-like 2) isoform 4 ectodomain, purified and … (UniProt Q9UHX3-4 24-447, limits assumed, biotinylated in vitro using the BirA enzyme); test: as above
T2 construct: extracellular domain; Close homolog of CD97 used as specificity control
T2 sequence (looked up): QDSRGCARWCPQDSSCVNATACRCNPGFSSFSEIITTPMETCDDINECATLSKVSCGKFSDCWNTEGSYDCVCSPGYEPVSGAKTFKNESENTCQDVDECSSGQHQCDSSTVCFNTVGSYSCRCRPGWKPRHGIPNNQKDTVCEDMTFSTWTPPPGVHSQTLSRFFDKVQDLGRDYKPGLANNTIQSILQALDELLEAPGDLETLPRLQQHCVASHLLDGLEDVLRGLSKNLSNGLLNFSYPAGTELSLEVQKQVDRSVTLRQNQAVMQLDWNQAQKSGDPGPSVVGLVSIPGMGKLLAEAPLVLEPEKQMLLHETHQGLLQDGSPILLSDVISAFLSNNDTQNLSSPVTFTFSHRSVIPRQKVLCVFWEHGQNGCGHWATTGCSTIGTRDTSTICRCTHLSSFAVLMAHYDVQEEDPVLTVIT

[10] = molecular target: T3, CD97 (ADGRE5) isoform 2 ectodomain, purified and biotinylated (human, UniProt P48960 21-552, biotinylated in vitro using the BirA enzyme); test: as above
T3 construct: the whole entry for isoform 2 is named here; also called CD97 isoform 2
T3 sequence: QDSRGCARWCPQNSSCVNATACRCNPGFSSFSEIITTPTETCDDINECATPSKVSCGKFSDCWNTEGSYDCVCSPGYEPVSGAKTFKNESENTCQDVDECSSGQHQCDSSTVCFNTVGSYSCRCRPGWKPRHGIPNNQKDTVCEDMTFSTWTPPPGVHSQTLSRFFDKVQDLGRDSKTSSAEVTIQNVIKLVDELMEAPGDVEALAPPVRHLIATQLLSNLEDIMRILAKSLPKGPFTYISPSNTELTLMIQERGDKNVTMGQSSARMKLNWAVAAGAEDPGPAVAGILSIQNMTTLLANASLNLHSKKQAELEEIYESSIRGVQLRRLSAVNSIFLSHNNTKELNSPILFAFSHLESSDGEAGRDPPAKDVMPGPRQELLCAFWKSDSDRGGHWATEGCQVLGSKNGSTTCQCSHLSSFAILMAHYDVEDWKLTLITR

[11] = molecular target: EMR2 (EGF-like module-containing mucin-like hormone receptor-like 2) isoform 1 ectodomain, purified and biotinylated (UniProt Q9UHX3); test: as above
[12] = molecular target: T1, CD97 (ADGRE5) isoform 1 ectodomain, …; test: bead-based binding titration (biotinylated antigen on streptavidin beads, flow cytometry), 1:1 fit [Continued]
[13] = molecular target: T3, CD97 (ADGRE5) isoform 2 ectodomain, …; test: as above
[14] = molecular target: T2, EMR2 (EGF-like module-containing …); test: bead-based binding titration (biotinylated antigen on streptavidin beads, flow cytometry) [Continued]
[15] = molecular target: T3, CD97 (ADGRE5) isoform 2 ectodomain, …; test: as above

B1: N100bHE (Fab, V domains shown)
VH: EVQLVESGGGLVQPGGSLRLSCAASGFTISSYSIHWVRQAPGKGLEWVASISPYYGSTSYADSVKGRFTISADTSKNTAYLQMNSLRAEDTAVYYCARSWYYYEQEPYWYQKEEQALDYWGQGTLVTVSS
VL: DIQMTQSPSSLSASVGDRVTITCRASQSVSSAVAWYQQKPGKAPKLLIYSASSLYSGVPSRFSGSRSGTDFTLTISSLQPEDFATYYCQQSVYSPVTFGQGTKVEIK
notes: also called A8 N100bHE; Antibody Clone A8 N100bHE; copies: 1 + 1
Kd [1]: 150 nM | Kd [2]: 160 nM

B2: A8-MMAF (conjugate)
VH: EVQLVESGGGLVQPGGSLRLSCAASGFTISSYSIHWVRQAPGKGLEWVASISPYYGSTSYADSVKGRFTISADTSKNTAYLQMNSLRAEDTAVYYCARSWYYYEQNPYWYQKEEQALDYWGQGTLVTVSS
VL: DIQMTQSPSSLSASVGDRVTITCRASQSVSSAVAWYQQKPGKAPKLLIYSASSLYSGVPSRFSGSRSGTDFTLTISSLQPEDFATYYCQQSVYSPVTFGQGTKVEIKRTV
modifications: non-natural residues
cell killing specificity versus cell-surface CD97 level [3]: correlated with the cell-surface CD97 level; also recorded: inhibited cell growth only for the cells expressing a high level of CD97 | cell killing (cell viability) [4]: potently killed OCI-AML3 cells in a dose-dependent manner; also recorded: potent cell-killing effect on OCI-AML3 cells

B3: A8S293C-PBD (conjugate)
VH: EVQLVESGGGLVQPGGSLRLSCAASGFTISSYSIHWVRQAPGKGLEWVASISPYYGSTSYADSVKGRFTISADTSKNTAYLQMNSLRAEDTAVYYCARSWYYYEQNPYWYQKEEQALDYWGQGTLVTVSS
VL: DIQMTQSPSSLSASVGDRVTITCRASQSVSSAVAWYQQKPGKAPKLLIYSASSLYSGVPSRFSGSRSGTDFTLTISSLQPEDFATYYCQQSVYSPVTFGQGTKVEIKRTV
killing of PBMC cells [5]: did not kill PBMC cells | cell-killing effect (cell death, Annexin V) ([6]; 4 days incubation): potent cell-killing effect | specificity of cell killing ([6]; OCI-AML3 (hCD97 high) versus ExpiCHO (hCD97-null), 4 days): specifically killed cells expressing high levels of CD97

B4: W100eHA (Fab, V domains shown)
VH: EVQLVESGGGLVQPGGSLRLSCAASGFTISSYSIHWVRQAPGKGLEWVASISPYYGSTSYADSVKGRFTISADTSKNTAYLQMNSLRAEDTAVYYCARSWYYYEQNPYAYQKEEQALDYWGQGTLVTVSS
VL: DIQMTQSPSSLSASVGDRVTITCRASQSVSSAVAWYQQKPGKAPKLLIYSASSLYSGVPSRFSGSRSGTDFTLTISSLQPEDFATYYCQQSVYSPVTFGQGTKVEIK
notes: also called A8 W100eHA; Antibody Clone A8 W100eHA; copies: 1 + 1
binding result [7]: no binding

B5: Fab 2V10 (Fab, V domains shown)
VH: EVQLVESGGGLVQPGGSLRLSCAASGFTISSSSIHWVRQAPGKGLEWVAYIYPSSGSTSYADSVKGRFTISADTSKNTAYLQMNSLRAEDTAVYYCARPWYYSTFNKKWWDYQGLDYWGQGTLVTVSS
VL: DIQMTQSPSSLSASVGDRVTITCRASQSVSSAVAWYQQKPGKAPKLLIYSASSLYSGVPSRFSGSRSGTDFTLTISSLQPEDFATYYCQQSWWDPITFGQGTKVEIKR
notes: second discovery campaign; biotinylated Fab in the bead assay; same clone as m10 in Fab format; also called Antibody Clone 2V10
Kd [8]: 2.7 nM | Kd [9]: 1.5 nM | Kd [10]: 3 nM | Kd [11]: 1.6 nM

B6: Fab D25 (Fab, V domains shown)
VH: EVQLVESGGGLVQPGGSLRLSCAASGFTFSSSSIHWVRQAPGKGLEWVASISPYYGSTSYADSVKGRFTISADTSKNTAYLQMNSLRAEDTAVYYCARKLEWGMFFWSPYFRALDYWGQGTLVTVSS
VL: DIQMTQSPSSLSASVGDRVTITCRASQSVSSAVAWYQQKPGKAPKLLIYSASSLYSGVPSRFSGSRSGTDFTLTISSLQPEDFATYYCQQSSSSLITFGQGTKVEIKR
notes: first discovery campaign; also called Antibody Clone D25
Kd [12]: 14 nM | Kd [13]: 14 nM

B7: Fab 2W1 (Fab, V domains shown)
VH: EVQLVESGGGLVQPGGSLRLSCAASGFTVSSSSIHWVRQAPGKGLEWVAYISSSSGSTYYADSVKGRFTISADTSKNTAYLQMNSLRAEDTAVYYCARDFYFGSYYSFGWGLDYWGQGTLVTVSS
VL: DIQMTQSPSSLSASVGDRVTITCRASQSVSSAVAWYQQKPGKAPKLLIYSASSLYSGVPSRFSGSRSGTDFTLTISSLQPEDFATYYCQQDSSYPITFGQGTKVEIKR
notes: second discovery campaign; biotinylated Fab in the bead assay; also called Antibody Clone 2W1
Kd [8]: 18 nM | Kd [9]: 52 nM | Kd [10]: 18 nM | Kd [11]: 47 nM

B8: Antibody clone C27, Fab format (Fab, V domains shown)
VH: EVQLVESGGGLVQPGGSLRLSCAASGFTLSSSSIHWVRQAPGKGLEWVASIYSYYGSTYYADSVKGRFTISADTSKNTAYLQMNSLRAEDTAVYYCARYRGNMYYWESWYGSYWALDYWGQGTLVTVSS
VL: DIQMTQSPSSLSASVGDRVTITCRASQSVSSAVAWYQQKPGKAPKLLIYSASSLYSGVPSRFSGSRSGTDFTLTISSLQPEDFATYYCQQSSSSLITFGQGTKVEIKR
binding result [14]: no binding (tested: 50 nM) | binding result [15]: no binding (tested: 50 nM) | Kd [12]: 16 nM
